Patent publication US20220363623A1, “IMAGING AND THERAPEUTIC COMPOSITIONS” (priority 2019, published 2022)
*1 amine or outer side, *2 acyl side, *3 side chain or, on linkers, in order; H or OH if unused. Where a SMILES comes first, the peptide text is derived from it. Bridges are numbered along the chain shown (N, C = ends). Side-chain parts run from the residue outwards. [ ]: non-standard residue; d: D form. The star is where a group is joined. X1 = O=C([C@@H](Cc1ccccc1)N(c1c(NCCCCCN(O)[*:3])c(=O)c1=O)[*:1])[*:2]; X2 = CC(=O)N(O)CCCCCNC(=O)CCC(=O)N(O)CCCCCN*; Thr(ol) = C[C@@H](O)[C@H](N)CO; Suc = O=C(CCC(=O)[*:2])[*:1]

Tests used:
[1] = in vivo; set-up: species or system mice; details: female, Balb/c nude, mouse, iv, total radioactivity
Method: (§1) PET-CT imaging and Biodistribution of Octreotate/tide Tracers. Female Balb/c nude mice (age 9 weeks) were inoculated subcutaneously on the right flank with 3×10^6 AR42J cells in PBS:Matrigel (1:1). Mice were weighed and tumours measured twice weekly using electronic callipers. Tumour volume (mm^3) was calculated as length^2×width/2. 12 mice were assigned for imaging and biodistribution studies (tumour volumes: 170-550 mm^3). DFOSqTIDE (2.5 MBq) and DFOSqTATE (2.2 MBq) were administered intravenously by tail vein injection to mice on. At 1, 2, 4 and 18 hr post injection three mice were anaesthetised using isoflurane and placed on the imaging bed of a G8 PET/CT scanner (Perkin Elmer). A CT scan was performed which was immediately followed by a 10 min static PET scan. PET images were reconstructed using the maximal likelihood and expectation maximization (ML-EM) algorithm. PET images were analysed using VivoQuant (Invicro) and Tumour SUVmax, Tumour SUVmax/background average (TBR) and Tumour SUVmax/liver average (TLR) determined. After imaging at 18 hr mice were euthanised and selected tissues were excised, weighed and counted using a Capintec (Captus 4000e) gamma counter. A separate cohort of 3 mice was harvested at 1 hr post injection for biodistribution analysis. The data was analysed using GraphPad Prism 7 and differences between tracers analysed using a t-test. The high tumor uptake was confirmed by an ex vivo biodistribution study in the same mouse model where mice were injected with either ^68GaDFOSq-TIDE and ^68GaDFOSq-TATE (2-3 MBq, 1 μg, 0.5 nmol) and then euthanised at either 1 h or 2 h after administration. The amount of injected activity per gram of tissue (% IA/g) in the tumor and major organs was quantified (FIG. 16).

[2] = in vivo; set-up: species or system mice; details: female, Balb/c nude, mouse, iv, total radioactivity; remark: listed apart in the source
Method: as §1, with “t-test.” for “t-test. The high tumor uptake was confirmed by an ex vivo biodistribution study in the same mouse model where mice were injected with either ^68GaDFOSq-TIDE and ^68GaDFOSq-TATE (2-3 MBq, 1 μg, 0.5 nmol) and then euthanised at either 1 h or 2 h after administration. The amount of injected activity per gram of tissue (% IA/g) in the tumor and major organs was quantified (FIG. 16).”
(§2) AR42J (rat pancreatic cancer cell line) tumour bearing Balb/c nude mice as described above were injected intravenously via tail vein injection with ^89ZrDFOSqTATE or ^89ZrDFOSqTIDE (2-3 MBq). At 1, 2, 4 and 18 h post-injection the mice were anaesthetised with isoflurane and imaged over 10 min. At 1 hr after injection of DFOSqTIDE and DFOSqTATE, uptake into kidney, tumour and liver was observed. Representative PET images of mice injected with DFOSqTIDE and DFOSqTATE are shown in FIG. 12 and quantitation of the tumour SUVmax for each radiotracer is summarised in FIG. 13a.
(§3) ^68GaDFOSq-TIDE and ^68GaDFOSq-TATE tracers were injected (2-3 MBq, 1 μg, 0.5 nmol) intravenously via tail vein to AR42J (rat pancreatic cancer cell line) tumour bearing Balb/c nude mice. PET images were acquired at 1 and 2 h post-injection (FIGS. 15a and b). […] Quantification of the uptake in the images using Standard Uptake Value (SUVmax=radioactivity in a tissue/injected activity/BW) confirms the higher uptake for ^68GaDFOSq-TATE (1 h; SUVmax 1.8±0.2, compared to 1.21±0.20, FIG. 15c). The higher tumor uptake of ^68GaDFOSqTATE was also associated with a higher degree of tumor retention at 2 h post injection with only a 5% reduction in SUVmax whereas the tumor SUVmax for ^68GaDFOSqTIDE reduced by 30% ^68GaDFOSqTATE at 2 h post injection. Both tracers clear rapidly from the blood and there is low uptake in bone consistent with stable gallium-68 complexes as well as low uptake in muscle. Both tracers have significant uptake in the kidneys and bladder.

[3] = test system: AR42J (rat pancreatic cancer cell line) tumour; test: in vivo; set-up: species or system mice; details: mouse
Method: as §1, with “t-test.” for “t-test. The high tumor uptake was confirmed by an ex vivo biodistribution study in the same mouse model where mice were injected with either ^68GaDFOSq-TIDE and ^68GaDFOSq-TATE (2-3 MBq, 1 μg, 0.5 nmol) and then euthanised at either 1 h or 2 h after administration. The amount of injected activity per gram of tissue (% IA/g) in the tumor and major organs was quantified (FIG. 16).”
as §2, §3

[4] = in vivo; set-up: species or system mice; details: male, mouse, iv, total radioactivity
Method: PET-CT imaging and Biodistribution. Male Balb/c nude mice (age 8.5 weeks) or Male NSG mice (age 12 weeks) were inoculated subcutaneously on the right flank with 6×10^6 LNCap cells in PBS:Matrigel (1:1). Mice were weighed and tumours measured twice weekly using electronic callipers. Tumour volume (mm^3) was calculated as length×width×height×π/6. Mice were assigned for imaging and biodistribution studies (tumour volumes: 85-450 mm3). ^89Zr-DFOSq-PSMA tracers were then administered intravenously by tail vein injection to 6 mice. At 1, 2, 4 and 18 hr post injection three mice were anaesthetised using isoflurane and placed on the imaging bed of a G8 PET/CT scanner (Perkin Elmer). A CT scan was performed and followed immediately by a 10 min static PET scan. PET images were reconstructed using the maximal likelihood and expectation maximization (ML-EM) algorithm. PET Images were analysed using VivoQuant (Invicro) and Tumour SUVmax or Tumour SUVmax/background average (TBR) determined. After imaging at 18 hr mice were euthanised and selected tissues were excised, weighed and counted using a Capintec (Captus 4000e) gamma counter. A separate cohort of 3 mice was harvested at 1 hr post injection for biodistribution analysis as above. The data was analysed using GraphPad Prism 7 and differences between tracers analysed using a t-test.
^89Zr Labelled tracers: The ^89Zr radiolabelled PSMA tracers were injected intravenously via tail vein to LNCaP (human PSMA expressing prostate cancer cell line) tumour bearing mice. At 1, 2, 4 and 18 h post-injection the mice were anaesthetised with isoflurane and imaged over 10 min. The representative PET images of mice injected with ^89Zr radiolabelled PSMA tracers at 1 and 18 hr are shown in FIG. 1 and quantitation of the Tumour SUVmax for each tracer is shown in FIG. 2a. […] There was a trend for higher tumour SUVmax for (4) tracer compared to all other tracers at all time points. […] A comparison of tumour uptake values is shown in FIG. 2b and the tissue biodistribution data for the tracers at 1 and 18 hr is summarised in FIG. 3.
^68Ga Labelled tracers: Representative PET images of mice injected with ^68Ga(1) and ^68Ga(4) are shown in FIG. 4 and quantitation of the tumour SUVmax is shown in FIG. 5a. […] Tumour uptake of ^68Ga(4) was 1.6 and 1.8 fold higher than ^68Ga(1) at 1 and 2 hr p.i., respectively. This is consistent with the biodistribution results where tumour % ID/g for ^68Ga(4) was higher than ^68Ga(1) at 1 hr (10.8±1.3 vs 6.5±0.4) and at 2.5 hr (8.6±1.0 vs 4.1±0.5) p.i. […] (6.5±0.4% ID/g at 1 hr vs 4.1±0.5% ID/g at 2.5 hr). In contrast, there was no significant change in ^68Ga(4) tumour retention at 1 and 2.5 p.i. (10.8±1.3% ID/g vs […], FIG. 5b).

[5] = test system: DU145 cells; test: Tracer uptake in DU145 cells, a PSMA negative cell line; assay type: cell-based; details: 60 min, in words
Method: Cell binding and internalization studies. LNCap cells (150,000/well) were plated in RPMI 1640 medium containing 10% FBS into wells of a 24 well plate pre-coated with 0.05% poly-L-lysine and incubated overnight at 37° C. and 5% CO2. The following day cells were washed twice with PBS and incubated for 1 hour at 37° C. in 1 mL per well internalisation buffer (MEM, 1% FBS). The buffer was then replaced with 1 ml per well of a warmed solution containing 0.5 μCi ^89Zr-DFOsq-PSMA tracers in internalisation buffer. Cells were incubated in triplicate for 5, 15, 30 or 60 min at 37° C. and 5% CO2. […] Total protein content was determined in this fraction using a BCA protein assay kit (Pierce). A Perkin Elmer 2480 Wizard automatic gamma counter was then used to measure Zr-89 radioactivity in unbound, surface bound and internalised fractions. Surface bound and internalised fractions were expressed as percentage of total added radioactivity per mg of protein. Non-specific membrane binding and internalisation was determined by incubating cells with the ^89Zr-DFOSq-PSMA tracers in the presence of excess (10 μM) PMPA. ^89Zr-DFOSq-PSMA tracers uptake at 60 min was also determined in DU145 cells (seeded at 125,000 cells/well), a PSMA negative cell line. The raw data was analysed using GraphPad Prism 7.

[6] = test system: LNCap cells; test: Cell binding and internalization studies in LNCap cells; assay type: cell-based, human
Method: Cell binding and internalization studies. LNCap cells (150,000/well) were plated in RPMI 1640 medium containing 10% FBS into wells of a 24 well plate pre-coated with 0.05% poly-L-lysine and incubated overnight at 37° C. and 5% CO2. The following day cells were washed twice with PBS and incubated for 1 hour at 37° C. in 1 mL per well internalisation buffer (MEM, 1% FBS). The buffer was then replaced with 1 ml per well of a warmed solution containing 0.5 μCi ^89Zr-DFOsq-PSMA tracers in internalisation buffer. Cells were incubated in triplicate for 5, 15, 30 or 60 min at 37° C. and 5% CO2. At each time point, cells were washed twice with ice-cold PBS and the washes collected for counting (unbound fraction). Cells were then incubated twice for 10 min in saline containing 10 μM PMPA and each wash collected for counting (surface bound fraction). The cells were then solubilised in 1 M NaOH (internalised fraction). Total protein content was determined in this fraction using a BCA protein assay kit (Pierce). A Perkin Elmer 2480 Wizard automatic gamma counter was then used to measure Zr-89 radioactivity in unbound, surface bound and internalised fractions. Surface bound and internalised fractions were expressed as percentage of total added radioactivity per mg of protein. Non-specific membrane binding and internalisation was determined by incubating cells with the ^89Zr-DFOSq-PSMA tracers in the presence of excess (10 μM) PMPA. ^89Zr-DFOSq-PSMA tracers uptake at 60 min was also determined in DU145 cells (seeded at 125,000 cells/well), a PSMA negative cell line. The raw data was analysed using GraphPad Prism 7.

[7] = test system: AR42J (rat pancreatic cancer cell line) tumour; test: in vivo; set-up: species or system mice; details: female, Balb/c nude, mouse, iv, 18 h
Method: as §1

[8] = Tumour uptake % IA/g 1 h post injection

For `CC(=O)N(O)CCCCCNC(=O)CCC(=O)N(O)CCCCCNC(=O)CCC(=O)N(O)CCCCCNc1c(N[C@H](Cc2ccccc2)C(=O)N[C@H]2CSSC[C@@H](C(=O)N[C@H](C(=O)O)[C@@H](C)O)NC(=O)[C@H]([C@@H](C)O)NC(=O)[C@H](CCCCN)NC(=O)[C@@H](Cc3c[nH]c4ccccc34)NC(=O)[C@H](Cc3ccc(O)cc3)NC2=O)c(=O)c1=O` (68Ga complex, metal not drawn) [^68GaDFOSqTATE] (H-[X1]([Suc-X2])CY[dW]KTCT-OH; disulfide 2-7), the tissue uptake at 2 h ([1]; Tumor uptake % ID/g 2 h post injection) was 9.22 ± 0.92 %ID/g, the tissue uptake at 1 h [1, 8] was 9.8 ± 2.33 %ID/g and the tissue uptake at 1 h ([1]; Uptake in the kidneys) was 16 ± 3.27 %ID/g. For the same compound, the SUV at 1 h [2] was 1.8 ± 0.2 SUV and the “Reduction in tumor SUVmax at 2 h post injection” value [3] was 5%.
With `CC(=O)N(O)CCCCCNC(=O)CCC(=O)N(O)CCCCCNC(=O)CCC(=O)N(O)CCCCCNc1c(N[C@H](Cc2ccccc2)C(=O)N[C@H]2CSSC[C@@H](C(=O)N[C@H](CO)[C@@H](C)O)NC(=O)[C@H]([C@@H](C)O)NC(=O)[C@H](CCCCN)NC(=O)[C@@H](Cc3c[nH]c4ccccc34)NC(=O)[C@H](Cc3ccc(O)cc3)NC2=O)c(=O)c1=O` (68Ga complex, metal not drawn) [^68GaDFOSqTIDE] (H-[X1]([Suc-X2])CY[dW]KTC[Thr(ol)]; disulfide 2-7) the tissue uptake at 1 h [1, 8] was 8.81 ± 1.03 %ID/g, the tissue uptake at 2 h ([1]; Tumour uptake % IA/g 2 h post injection) was 4.4 ± 1.1 %ID/g and the tissue uptake at 1 h ([1]; Uptake in the kidneys) was 37.6 ± 3.5 %ID/g. The SUV at 1 h [2] was 1.21 ± 0.2 SUV and the “Reduction in tumor SUVmax at 2 h post injection” value [3] was 30%.
In the case of `CC(=O)N(O)CCCCCNC(=O)CCC(=O)N(O)CCCCCNC(=O)CCC(=O)N(O)CCCCCNc1c(NCc2ccc(C(=O)NCCCCC(NC(=O)NC(CCC(=O)O)C(=O)O)C(=O)O)cc2)c(=O)c1=O` (centres unmarked) [(1), DFOSq-PhPSMA ligand], the tissue uptake at 1 h ([4]; Tumour Uptake % ID/g 1 h pi) is reported as 5.4 %ID/g, the tissue uptake at 18 h ([4]; Tumour Uptake % ID/g 18 h pi) is reported as 2.2 %ID/g and the “Binding in DU145, PSMA negative cell line” value [5] is reported as “Minimal binding”. For the same compound, the “Cell Uptake % AR/mg protein (60 min) internalized” value ([6]; 89Zr tracers, 60 min, 37° C.) was 7 % AR/mg protein, the “Internalised activity in the presence of excess PMPA” value ([6]; excess (10 μM) PMPA) was “up to 5 % AR/mg protein” and the Surface binding ([6]; presence and absence of excess PMPA, all timepoints) was 2 % AR/mg protein.
With `CC(=O)N(O)CCCCCNC(=O)CCC(=O)N(O)CCCCCNC(=O)CCC(=O)N(O)CCCCCNc1c(N[C@H](Cc2ccccc2)C(=O)N[C@H]2CSSC[C@@H](C(=O)N[C@H](CO)[C@@H](C)O)NC(=O)[C@H]([C@@H](C)O)NC(=O)[C@H](CCCCN)NC(=O)[C@@H](Cc3c[nH]c4ccccc34)NC(=O)[C@H](Cc3ccc(O)cc3)NC2=O)c(=O)c1=O` [DFOSqTIDE] (H-[X1]([Suc-X2])CY[dW]KTC[Thr(ol)]; disulfide 2-7) the tissue uptake at 1 h ([1]; Tumour Uptake % ID/g 1 h pi) was 3.4 ± 0.4 %ID/g, the tissue uptake at 18 h ([1]; Tumour Uptake % ID/g 18 h pi) was 1.7 ± 0.1 %ID/g and the “Tumour Uptake % ID/g 18 h pi” value [7] was 1.5±0.1 % ID/g. The “Tumour SUVmax Clearance %” value [3] was 55%.
